Reference: US20230212305A1 (published 2023)
Changes are numbered by the printed parent chain. Blank lines part the entries; values can stand above or below the binder they belong to.

Legend:
[1] = target: T1, cynomolgus ABCG2 (Macaca fascicularis) (Macaca fascicularis (cynomolgus), UniProt Q5MB13 1-654 (rhesus entry)); experiment: flow cytometry on cells expressing cynomolgus ABCG2; paragraph 395: non-significant binding = -
T1 construct: also called cABCG2
T1 sequence: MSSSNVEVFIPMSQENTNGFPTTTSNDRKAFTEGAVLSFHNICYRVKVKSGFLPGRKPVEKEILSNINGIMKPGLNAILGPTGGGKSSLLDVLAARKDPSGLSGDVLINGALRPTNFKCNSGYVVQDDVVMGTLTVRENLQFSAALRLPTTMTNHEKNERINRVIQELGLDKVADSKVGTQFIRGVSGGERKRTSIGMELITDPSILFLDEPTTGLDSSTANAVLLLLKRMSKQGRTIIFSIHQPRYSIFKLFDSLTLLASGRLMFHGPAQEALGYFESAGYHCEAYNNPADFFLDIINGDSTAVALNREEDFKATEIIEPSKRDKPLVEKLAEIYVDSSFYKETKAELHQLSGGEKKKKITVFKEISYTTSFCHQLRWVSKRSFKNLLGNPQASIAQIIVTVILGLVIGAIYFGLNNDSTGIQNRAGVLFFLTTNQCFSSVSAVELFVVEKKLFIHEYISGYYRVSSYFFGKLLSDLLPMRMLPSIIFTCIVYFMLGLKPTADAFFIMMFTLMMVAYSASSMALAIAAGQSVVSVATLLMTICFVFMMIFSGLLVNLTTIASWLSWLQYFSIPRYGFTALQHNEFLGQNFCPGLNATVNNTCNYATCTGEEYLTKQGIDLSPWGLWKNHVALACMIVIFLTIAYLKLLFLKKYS
Procedure: (§1) Cell Binding Assays. Antibody binding to cells was evaluated by flow cytometry. […] After incubating cells on ice for 30 min, cells were washed twice with flow cytometry buffer. Bound antibody was detected with PE-labeled F(ab′)₂ fragment goat anti-human IgG (Jackson ImmunoResearch) and evaluated on an Attune NxT flow cytometer.

human ABCG2 = target: T2, human ABCG2 (human, UniProt Q9UNQ0 1-655); experiment: flow cytometry titration on 293T_ABCG2_OX cells; column Affinity for human ABCG2 (nM)
T2 construct: also called hG2; KPG2
T2 sequence: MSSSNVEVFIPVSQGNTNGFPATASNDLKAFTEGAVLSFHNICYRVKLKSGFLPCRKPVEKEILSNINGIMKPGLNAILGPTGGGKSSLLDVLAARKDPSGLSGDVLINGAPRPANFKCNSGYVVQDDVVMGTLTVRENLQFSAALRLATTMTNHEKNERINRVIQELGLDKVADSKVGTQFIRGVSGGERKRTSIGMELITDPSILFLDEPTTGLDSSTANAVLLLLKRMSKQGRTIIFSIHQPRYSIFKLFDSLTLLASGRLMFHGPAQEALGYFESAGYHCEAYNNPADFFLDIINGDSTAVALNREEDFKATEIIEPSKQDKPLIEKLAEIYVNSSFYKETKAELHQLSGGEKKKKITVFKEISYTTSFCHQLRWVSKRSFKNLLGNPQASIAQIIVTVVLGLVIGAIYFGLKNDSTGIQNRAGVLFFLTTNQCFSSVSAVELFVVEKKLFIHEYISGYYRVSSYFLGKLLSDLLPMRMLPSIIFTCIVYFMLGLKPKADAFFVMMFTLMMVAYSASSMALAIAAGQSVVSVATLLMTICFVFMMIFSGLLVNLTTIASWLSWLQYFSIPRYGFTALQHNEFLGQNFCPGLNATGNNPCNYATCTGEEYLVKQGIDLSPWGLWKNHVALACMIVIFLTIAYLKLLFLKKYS
Procedure: as §1

[2] = target: T1, cynomolgus ABCG2 (Macaca fascicularis); experiment: flow cytometry on cells expressing cynomolgus ABCG2
Procedure: as §1

B1: G2.173 mouse (antibody, human IgG1, V domains shown)
VH: QVQLQQSGADLVRPGASVKLSCTASGFNIKDDYVHWVKQRPEQGLEWIGRIDPANGNTRYAPKFRGKATMTADTSSNTAYLQLSSLTSADTAVYYCSPPLWVGGFAYWGQGTLVTVSS
VL: DVVMTQTPLSLPVSLGDQASISCRSSQSLVHSDVNTYLHWYLQRPGQSPKLLIYKVSNRFSGVPDRFSGSGSGTDFTLKISRVESEDLGIYFCSQTTHVPYTFGGGTKLEIK
notes: Variable regions cloned onto human IgG1 constant heavy chain and human kappa constant light chain
- binding result [1]: no binding
- Kd (human ABCG2): 17 nM

B2: G2.173 Humanized 1 (antibody, human IgG1, V domains shown)
VH: EVQLVQSGAEVKKPGASVKVSCKASGFNIKDDYVHWVRQAPGQGLEWIGRIDPANGNTRYAPKFRGRATMTADTSISTAYMELSRLRSDDTAVYYCSPPLWVGGFAYWGQGTLVTVSS
VL: B1 VL with T7S, S14T, D17Q, Q18P, L42Q, K50R, S85A, L88V, I90V
- binding result [1]: no binding
- Kd (human ABCG2): 46 nM

B3: G2.173 Humanized 2 (antibody, human IgG1, V domains shown)
VH: B2 VH with N55Q
VL: B1 VL with T7S, S14T, D17Q, Q18P, L42Q, K50R, S85A, L88V, I90V
- binding result [1]: no binding
- Kd (human ABCG2): 273 nM

B4: G2.173 Humanized 3 (antibody, human IgG1, V domains shown)
VH: B2 VH with N55S
VL: B1 VL with T7S, S14T, D17Q, Q18P, L42Q, K50R, S85A, L88V, I90V
- binding result [1]: no binding
- Kd (human ABCG2): 44 nM

B5: G2.630 rat (antibody, human IgG1, V domains shown)
VH: EVQLVESGPGLVKPSQSLSLTCSVTGYTITSGYDWTWIRKFPGNKMEWMGYISYSGFTNYNPSLRSRISITRDTSKNQFFLQLNSVTTEDTATYYCTRTRGYNPFAYWGQGTLVTVSS
VL: DVVMTQSPSLLSASVGDRVTLSCKAGRNINNYLAWYQQKLGKAPKLLIYNTNSLQTGIPSRFSGSGSGTDFTLTISSLQPEDVATYFCQQYNSWTTFGSGTKLEIK
notes: as for B1
- binding result [2]: binds

B6: G2.318 rat (antibody, human IgG1, V domains shown)
VH: B5 VH with Q3K, V5L, T36S, F57W, T71S, T97A, T99V
VL: B5 VL with V2I, R27Q, K42E, T51A
notes: as for B1
- binding result [2]: binds

B7: G2.320 rat (antibody, human IgG1, V domains shown)
VH: B5 VH with V5E, T112A, L113S, T115S, V116S, S117A
VL: B5 VL with V2I
notes: as for B1
- binding result [2]: binds

B8: G2.394 rat (antibody, human IgG1, V domains shown)
VH: EVQLKESGPGLVQPSQTLSLTCTVSGFSLTDYTITWVRQPPGKGLEWIAATSVGGATHYNSPLKSRLSISGDTSKSQVFLKMNSLRTEDTAMYFCVRSGYYSTYMNWGRGTMVTVSS
VL: DVVMTQTPPTFSATIGQSVSISCRSSQSLLHSSGNTFLSWLLQRPGQPPQLLIYLVSRLEFGVPNRFSGSGSGTDFTLKISGVEAEDLGVYYCVQSTHVMNTFGAGTKLEIK
notes: as for B1
- binding result [2]: binds
- Kd (human ABCG2): 88 nM

B9: G2.257 mouse (antibody, human IgG1, V domains shown)
VH: EVQLQQSGPELVKPGASLKISCKTFGYSFTGYYMHWVKQSPEKSLEWIGKIVPSTGGTTYNQKFKAKATLTVDKSSFTAYMQLKSLTTEDSAVYYCAREKVYGYDVYYFDYWGQGTTLTVSS
VL: DIQMTQTPSSLSASLGDRVTITCSTSQGVRSYLNWYQQKPDGSVKLLIYYTSSLHSGVPSRFSGSGSGTDYSLTISNLEPEDIATYYCQQYSKLPYTFGGGTKLELK
notes: as for B1
- binding result [2]: binds
- Kd (human ABCG2): 7.9 nM

B12: G2.247 mouse (antibody, human IgG1, V domains shown)
VH: EVRLQQSGAELVKPGASVKLSCKTSGFTFSNSYISWLKQKPRQSLEWIAWIYAGTGGTNYNQKFTGKAQLTVDTSSSTAYMQLSSLTSEDSAIYYCATYGNFLYAMDNWGQGTSVTVSS
VL: DIVMTQSPASLSASVGETVTITCRASGNIHNYLAWYQQKQGKSPQLLVYNTKTLADGVPSRFSGSGSGTQYSLKINSLQPEDFGSYYCQHFWSTPWTFGGGTKLEIK
notes: as for B1
- binding result [1]: no binding
- Kd (human ABCG2): 59 nM

B16: G2.302 Humanized (antibody, human IgG1, V domains shown)
VH: EIQLVQSGAEVKKPGASVKVSCKASGYTFTDYYINWVRQAPGQRLEWIGWIYPGNVNVKYNEKFKGRATLTVDTSASTGYMELSSLRSEDTAVYFCARSIGLRYFDNWGQGTLVTVSS
VL: EKVLTQSPATLSLSPGERATLSCRASSSVHYMYWHQQKPGQSPRLWIYYTSNLAPGVPARFSGSGSGNDYTLTISSLEPEDFAVYYCQQFTTSTWTFGGGTKLEIK
- binding result [2]: binds
- Kd (human ABCG2): 59 nM

B17: G2.343 rat (antibody, human IgG1, V domains shown)
VH: SVQLKESGPGLVQPSQTLSLTCTVSGFSLTSNGVSWVRQPPGKGLEWIAAISSGGSTYYNSVLKSRLSISRDTSKSQVFLKMNSLQTEDTAIYFCTRDTYYGYNQIPFVYWGQGTLVTVSS
VL: DVVLAQTPPTLSATIGQSVSISCRSSQSLLHSSGNTYLNWLLQRPGQPPQLLIYLVSRLESRVPNRFSGSGSGTDFTLKISGVEAEDLGVYYCVQSTHAPRTFGGGTKLELK
notes: as for B1
- binding result [2]: binds
- Kd (human ABCG2): 40 nM

Continued by falling Kd (human ABCG2), values first:

- binding result [1]: no binding
- Kd (human ABCG2): 347 nM
B13: G2.252 mouse (antibody, human IgG1, V domains shown)
VH: B12 VH with R3Q, N108Y, S114T, V115L
VL: B12 VL with D1E, M4L, T51A
notes: as for B1

- binding result [1]: no binding
- Kd (human ABCG2): 179 nM
B11: G2.65 mouse (antibody, human IgG1, V domains shown)
VH: QGQMHQSGAELVKPGASVKLSCKTSGFTFNSGYISWLKQKPRQSLEWIAWIYAGTGISNFNQKFTGKAQLTVDTSSSTAYMQLSSLTSADSAIYFCASGARKTLDFWGQGTSVTVSS
VL: DIQMTQSSSYLSVSVGGRVTITCKASDQINYWLAWYQQKPGNAPRLLISGATSLETGVPSRFSGSGSGKDYTLSITSFQTEDVATYYCQQYWTTPYTFGGGTKVEIK
notes: Variable regions cloned onto human IgG1 constant heavy chain and human kappa constant light chain; also called KNJY-G2-65

- binding result [2]: binds
- Kd (human ABCG2): 168 nM
B19: G2.346 rat (antibody, human IgG1, V domains shown)
VH: B17 VH with L4W, V62G, D98A, T99G, Q105P, P107W, V109T
VL: B17 VL with L4M, A5T, S32G, L51I, N65K, E86D, R101F, G105S
notes: as for B1

- binding result [1]: no binding
- Kd (human ABCG2): 125 nM
B14: G2.248 mouse (antibody, human IgG1, V domains shown)
VH: B12 VH with E1Q, R3Q, S7P
VL: B12 VL with V3Q, T5K
notes: as for B1

- binding result [2]: binds
- Kd (human ABCG2): 80 nM
B15: G2.348 rat (antibody, human IgG1, V domains shown)
VH: EVQLVESGPGLMQPSQTLSLTCTVSGFSLTSNGVSWVRQPPGKGLEWIATISSGGNTNYNSALKSRLSISRDTSKSQVFLKMNSLQTEDTAIYFCTRVGYYGYNPIWFAYWGQGTLVTVSS
VL: DVVMTQTPPTLSATIGHSVSISCRSSQSLFHSSGNTYLSWFLQRPGQPPQLLIYLVSRLESRVPNRFSGSGSGTDFTLKISVLEAEDLGVYYCVQTTHAPFTFGSGTKLEIK
notes: as for B1

- binding result [2]: binds
- Kd (human ABCG2): 56 nM
B18: G2.420 rat (antibody, human IgG1, V domains shown)
VH: SVQLMESGPGLVQPSQTLSLTCTVSGFSLNSYNVNWVRQPPGKGLEWIAAISSGGSTYYNSVLKSRLSITRDTSKSQVFLKMNSLQTEDTAMYFCARSGYYSSYMNWGQGVMVTVSS
VL: B17 VL with L4M, A5T, S33T, S61Y, R62G, V94A, P100L, R101N, G105A
notes: Variable regions cloned onto human IgG1 constant heavy chain and human kappa constant light chain; also called G.420; KNJY-G2-420

- binding result [2]: binds
- Kd (human ABCG2): 25 nM
B10: G2.302 mouse (antibody, human IgG1, V domains shown)
VH: QIQLQQSGPELVRPGASVKISCKASGYTFTDYYINWVKQRPGQGLEWIGWIYPGNVNVKYNEKFKGKATLTVDTSSSTGYMQLRSLTSEDSAVYFCARSIGLRYFDNWGQGTTLTVSS
VL: EKVLTQSPAIMSASLGEKVTMSCRASSSVHYMYWHQQKSDASPRLWIYYTSNLAPGVPARFSGSGSGNFYSLTISSVEDEDGATYYCQQFTTSTWTFGGGTKLEIK
notes: Variable regions cloned onto human IgG1 constant heavy chain and human kappa constant light chain; also called G.302
